Data published in article PMC10371346, “Modeling of ACE2 and antibodies bound to SARS-CoV-2 provides insights into infectivity and immune evasion” (JCI Insight, 2023).

Target: T1, recombinant His-tagged wild-type SARS-CoV-2 Spike trimer (SARS-CoV-2, Wuhan-Hu-1 (wild-type), UniProt P0DTC2)
T1 construct: also called wild-type Spike trimer; wild-type Spike
Test: flow cytometry on cells; Cas1-CAR-NK92MI cells displaying the scFv-CAR incubated with recombinant His-tagged Spike trimer in PBS with 0.5 mM CaCl2 and 0.9 mM MgCl2, 1 hour at 4°C under gentle agitation; washed, stained with PE anti-His and Alexa Fluor 647 anti-human IgG (H+L); parental NK92MI as negative and 293T-hACE2 as positive control
Conditions: one partner purified

B1: REGN10933 (casirivimab) single chain variable fragment displayed as a chimeric antigen receptor on NK92MI cells (scFv, V domains shown)
VH: QVQLVESGGGLVKPGGSLRLSCAASGFTFSDYYMSWIRQAPGKGLEWVSYITYSGSTIYYADSVKGRFTISRDNAKSSLYLQMNSLRAEDTAVYYCARDRGTTMVPFDYWGQGTLVTVSS
VL: DIQMTQSPSSLSASVGDRVTITCQASQDITNYLNWYQQKPGKAPKLLIYAASNLETGVPSRFSGSGSGTDFTFTISGLQPEDIATYYCQQYDNLPLTFGGGTKVEIK
notes: scFv domain of casirivimab (REGN10933); the variable domains are those of REGN10933 in PDB 6XDG; rest of the chimeric antigen receptor (hinge, transmembrane and signalling parts); also called Cas1-CAR; Cas1
B1: binds.
